Results: the supplement of paper PMC9170038

Test system: MS2 coat protein
Test: apparent KD of MS2 coat protein; designed switch direction (-1 OFF switch, 1 ON switch): -1; higher = weaker reporter binding
Method in brief: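 Apparent KD, taken as the median over clusters for each design, was obtained by curve-fitting normalised cluster fluorescence. Designed RNA switches had been transcribed on Illumina chips by stalled E. coli RNA polymerase and titrated with SNAP-549-labelled MS2 coat protein, doubling from 0.7 or 1.5 nM to 3 µM.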

[1] = Eterna round: R95, input ligand: FMN 200 uM
[2] = Eterna round: R95, input ligand: microRNA oligo, concentration not stated
[3] = Eterna round: R95, input ligand: none
[4] = input ligand: microRNA oligo, concentration not stated

| Sequence | apparent KD of MS2 coat protein (input ligand: FMN 200 uM) [nM] | apparent KD of MS2 coat protein (input ligand: none) [nM] | apparent KD of MS2 coat protein [2] [nM] | other results |
| --- | --- | --- | --- | --- |
| AAUUAAGCAAGCAGAUCCCACAUGAGGAUCACCCAUGUGCUCGUCUUAUAAGGUACUGUGACAAAAGUCACGGUACC [Mat - Sensor, turn-off var - Eli Mod - D73] (Eterna round: R97, puzzle: Sensor, turn-off variant 1) | 108 | 117 |  |  |
| CAGCUGAAAGUCAGGAUAUCUAGAGCUUCGGCUCUAGAGAAGGGACAUGAGGAUCACCCAUGUGAUCACAGCUG [BmEx4/4-A1] (Eterna round: R97, puzzle: Brourd's mod of Exclusion 4) | 152 | 1900 |  |  |
| AAUAAUAAGGAGGAUAUCGUAUCGGAAACGAUACGAGAAGGCCUAACAUGAGGAUCACCCAUGUUCCUUAAUAA [Fiskers Ex 6 - 4] (puzzle: Exclusion 6) |  |  | 22 | apparent KD of MS2 coat protein [1]: 33.3 nM; apparent KD of MS2 coat protein [3]: 18.2 nM |
| CCGGAAAUGGAGGAUAUAGGAGUCGAUAGACACCUAGAAGGUCAGACAUGAGGAUCACCCAUGUGUCCUACCGG [Fiskers Ex 6 - 88] (puzzle: Exclusion 6) |  |  | 14.9 |  |
| AAAUCGAGACGGAGAUCCGACAUGAGGAUCACCCAUGUCUCGUAAGCUUUUUGCUCGUCUUAUACUCCUCUGUUCUC [Elimod 50 - Jieux - Sensor, turn-off variant 1] (Eterna round: R97, puzzle: Sensor, turn-off variant 1) | 22.5 | 22.4 |  |  |
| CUACAUCGAGGAUAUGCAAACGUAAACAUGAGGAUCACCCAUGUGACGUCAUAUUACGUAGUAGAAGGCGAAAAUA [Anlein] (Eterna round: R97, puzzle: Exclusion 5) | 20.2 | 15.8 |  |  |
| AACAGGUCAGGAUAUACAUGAGGAUCACCCAUGUAGACUUCUGGUCUACCGAGACCGUGUAGAAGGGACCUGAA [Exclusion 3 (MOD3 of #98 Marzena11)] (Eterna round: R97, puzzle: Exclusion 3) | 104 | 35.7 |  |  |
| UUAAUUAAUGUCAGGAUAUCUAGAGCCUCGGCUCUAGAGAAGGGACAUGAGGAUCACCCAUGUCACUCUUAAUU [BmEx4/3-C2] (Eterna round: R97, puzzle: Brourd's mod of Exclusion 4) | 19.5 | 18.7 |  |  |
| GGAAAUCAUGUAGGAUAUGCGUGGCGAAGCUAUGCAGAAGGACAUGAGGAUCACCCAUGUGCUUCCGUCUGCGUACAGACGGAA [Mat - Exclusion NG 1 - Mod of JL - D20] (Eterna round: R96, puzzle: Exclusion NG 1) | 32.3 | 186 |  | apparent KD of MS2 coat protein [4]: 77.9 nM |
| AUUAAAGACCGAGGAUAUCGAGGAAAUACCCUGCGAGAAGGCGGGUACUCGGACGAUUCGACAUGAGGAUCACCCAUGUGCACA [Atrivece] (Eterna round: R96, puzzle: Exclusion NG 1) | 26.6 | 25.9 |  | apparent KD of MS2 coat protein [4]: 24.5 nM |
| CAGGUUAGAGGAUAUACGUAGGUACAGAUCUGUGUGUUUCUACAUGAGGAUCACCCAUGUAGAAGGCUAUCCUG [LRO-Excl2-10] (puzzle: Exclusion 2) |  |  | 25.3 |  |
| GAGUGGCAAGGAUAUACAGUGGAGAGGAUGGCAAGAGGUGGACAUGAGGAUCACCCAUGUAGAAGGUGCAGAGA [JR_Exclu2_Sub024] (puzzle: Exclusion 2) |  |  | 150 |  |
| AAACAGGGAGGAUAUACAUAGAUCCUCUAACCUAAUAGGUCACAUGAGGAUCACCCAUGUAGAAGGCCCUUAGG [Biinbebi] (puzzle: Exclusion 2) |  |  | 14.3 |  |
| CACCGUAACAGAGGAUAUGAUACAUGAGGAUCACCCAUGUAAUAAAUGAGAAUUUCGAAUGUACCUCAGAAGGCUGGAACCGGC [Ostricism 80 - Jieux - Exclusion NG 2] (Eterna round: R96, puzzle: Exclusion NG 2) |  |  |  | apparent KD of MS2 coat protein [4]: 33.9 nM |
| CUCAGACAUGAGGAUCACCCAUGUGAGGAUAUGAUGCAGCAGUGGUCUACGCUGUGCAUCAGAAGGCACAUGUG (puzzle: Exclusion 1) |  |  | 33 |  |
| GAUUGACAUGAGGAUCACCCAUGUGAGGAUAUCGGCUGGACCGUGUUGGCUUCCGUCUCGAGAAGGCGCAUAGG [Exclusion 1 V43] (puzzle: Exclusion 1) |  |  | 39.7 | apparent KD of MS2 coat protein [1]: 137 nM; apparent KD of MS2 coat protein [3]: 44.4 nM |
| AAAAAAAACAAGCUUAGGGACAUGAGGAUCACCCAUGUUCGUCUUAUAAAAAUAAAAAUAAAAAACAAAAAAUAAAA [Sensor V2: 53] (Eterna round: R96, puzzle: Sensor v2, turn-off variant) | 22.5 | 24.1 |  | apparent KD of MS2 coat protein [4]: 128 nM |
| ACUCAGUGAGGAUAUCGCCAGAGAACCGUAACGGUCUCUGAUGAGAAGGCACAUGAGGAUCACCCAUGUAAGCA [EX4 C.3] (Eterna round: R97, puzzle: Exclusion 4) | 278 | 174 |  |  |

| Sequence | apparent KD of MS2 coat protein (input ligand: FMN 200 uM) [nM] | apparent KD of MS2 coat protein (input ligand: none) [nM] | apparent KD of MS2 coat protein [2] [nM] | other results |
| --- | --- | --- | --- | --- |
| CAUGGAUGUGAGCCGCAUUACAUGAGGAUCACCCAUGUCAACAAGCUUUUUGCUUGUCUUACGCGGCGACAUCAGAA [Tiquatge] (puzzle: Sensor v3, turn-off variant 1) |  |  | 8.33 | apparent KD of MS2 coat protein [1]: 11.7 nM; apparent KD of MS2 coat protein [3]: 10.1 nM |
| GUAUGUCUAGGAUAUAUAUUGGAAUGUCCGUGUCCUAGCCAACAUGAGGAUCACCCAUGUAGAAGGAGAUGUGU [Eternabot (L1) Solution 97] (Eterna round: R97, puzzle: Exclusion 2) | 43.5 | 52.8 |  |  |
| UACUACGCAGGAUAUACAUGAGGAUCACCCAUGUGUCUGCGAUAGGCACGUGAAAUCCGUAGAAGGGUGUAGAU [Exclusion 3 - Oddities v.2] (puzzle: Exclusion 3) |  |  | 35.9 |  |
| UAGGAGUCAGGAUAUGCGAGAGAUGGAAGUAAGGGAUGAGAGCAGAAGGGACAUGAGGAUCACCCAUGUAAGGA [JR_Exclu4_Sub091] (puzzle: Exclusion 4) |  |  | 37.2 |  |
| CAACUGCAUGUGAGGAUAUGCACCGGCCAAGCCGGGCAGAAGGCACAUGAGGAUCACCCAUGUCAUCCUAUUGC [Esusgeraon] (puzzle: Brourd's mod of Exclusion 4) |  |  | 12.4 |  |
| CCGAAGUCCUGCGGAGUUCACAUGAGGAUCACCCAUGUAGGCGAGGAUAUUUAUGAUACAUGAGUAAAGAAGGCGUCUGGUAAA [Eternabot solution 26] (Eterna round: R96, puzzle: Exclusion NG 3) | 40.7 | 29.1 |  | apparent KD of MS2 coat protein [4]: 18.2 nM |
| UGCGGUAGAGGAUAUACGUAGAAUUAGGUUCAUGUAAAACUACAUGAGGAUCACCCAUGUAGAAGGCUAUCGCU [JL-ex2-4.30 Eli mod] (Eterna round: R97, puzzle: Exclusion 2) | 85.4 | 21.2 |  |  |
| UUGCCACAUGAGGAUCACCCAUGUGAGGAUAUGGCCCGCCCGGCGUGUGCUGGUUUUGUCAGAAGGCGCGUGGG [salish99_ex1_r4_029] (Eterna round: R97, puzzle: Exclusion 1) | 52.4 | 27.9 |  |  |
| AAUUUACAUGAGGAUCACCCAUGUGAGGAUAUGGAUUCGCUGGCCGUAGCCAGUGGAUCCAGAAGGCGCAUGAU [JL-ex1-4.12] (Eterna round: R97, puzzle: Exclusion 1) | 402 | 94.8 |  |  |
| UAUUUGCAAGCGAGAUCCCACAUGAGGAUCACCCAUGUUCUUGGAAAGUACAGAAUUACUGUACAAGCUCGUCUUCU [mod-Eli/newD-last] (Eterna round: R97, puzzle: Sensor, turn-off variant 1) | 18.9 | 20.4 |  |  |
| AAGUACCGUCACGAAAGUGAUGGUACAACAAGCAUGUAAACAUGAGGAUCACCCAUGUCCUCAUAUGCUCGUCUUAU [Sensor 3 - 63] (puzzle: Sensor v3, turn-off variant 2) |  |  | 32.5 | apparent KD of MS2 coat protein [1]: 480 nM; apparent KD of MS2 coat protein [3]: 533 nM |
| GGGCCCGGAGGAUAUACAAUUUUGGGCCGAAAGGCCCGGGUACAUGAGGAUCACCCAUGUAGAAGGCCGGGCCC [-41.7, -39.1 kcal A 24%, 5a,0] (Eterna round: R97, puzzle: Exclusion 2) | 134 | 32.4 |  |  |
| GUCAGACGAGGAUAUAGAUUUAGAUACAUGAGGAUCACCCAUGUAUACAUGUAUUUAGAUUUAGAAGGCGUCUGAC [E5/14-A4] (Eterna round: R97, puzzle: Exclusion 5) | 492 | 1360 |  |  |
| UUUUAACAUGAGGAUCACCCAUGUGAGGAUAUCGAAUUUUAUAUUAAUAUUAAUAAAACGAGAAGGCACAUUUU [JMF 8] (puzzle: Exclusion 1) |  |  | 49.6 | apparent KD of MS2 coat protein [1]: 60.8 nM; apparent KD of MS2 coat protein [3]: 49.6 nM |
| GAACUGAGGCUUUGCUUUAGUCGUACAUGAGGAUCACCCAUGUAGGAUAUGGUAGGCUUUGCUUACCAGAAGGACAGAGUGAUC [JL EXNG3 1.21] (Eterna round: R96, puzzle: Exclusion NG 3) | 52.9 | 195 |  | apparent KD of MS2 coat protein [4]: 192 nM |
| GUGGUUCCUGUCAGGAUAUACGCGGACCACCACCUGUAGAAGGGACAUGAGGAUCACCCAUGUUUUCCAAAGCG [Eternabot (L2) Solution 80] (Eterna round: R97, puzzle: Brourd's mod of Exclusion 4) | 13.2 | 13 |  |  |
| ACUGGAGCAGGAUAUAUAUGACGUGCUUCGGCACGAAGGUCACAUGAGGAUCACCCAUGUAGAAGGGCUCCAGU [E2/9-D1] (Eterna round: R97, puzzle: Exclusion 2) | 225 | 46.7 |  |  |
